In publication PMC3816987 (Journal of molecular recognition : JMR, 2010):

T1: GST fusion protein of Tulp1-N (1M-298Q) (mouse, UniProt Q9Z273 1-298)
T1 sequence (looked up): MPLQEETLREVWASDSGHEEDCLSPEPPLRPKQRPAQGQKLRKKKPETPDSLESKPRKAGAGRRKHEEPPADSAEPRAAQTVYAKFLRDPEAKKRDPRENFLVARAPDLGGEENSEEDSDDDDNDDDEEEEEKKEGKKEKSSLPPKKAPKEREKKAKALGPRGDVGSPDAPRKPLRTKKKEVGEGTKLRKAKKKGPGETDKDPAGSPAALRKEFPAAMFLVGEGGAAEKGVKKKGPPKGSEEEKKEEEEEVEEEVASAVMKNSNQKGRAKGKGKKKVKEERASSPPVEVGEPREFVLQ

T2: GST-free tubby-N (tubby N-terminus, 1M-242P) (mouse, UniProt P50586 1-242)
T2 sequence (looked up): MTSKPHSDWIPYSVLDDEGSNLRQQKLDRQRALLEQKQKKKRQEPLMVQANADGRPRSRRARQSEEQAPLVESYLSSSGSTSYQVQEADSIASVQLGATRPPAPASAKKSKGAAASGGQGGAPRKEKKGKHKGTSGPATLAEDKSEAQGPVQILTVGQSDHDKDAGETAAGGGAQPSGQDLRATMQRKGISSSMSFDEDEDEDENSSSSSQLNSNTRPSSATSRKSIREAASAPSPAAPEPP

B1: Tubby like protein 1 (Tulp1) phage clone, 125D-243E (domain or fragment, mouse, UniProt Q9Z273 125-243, looked up)
chain: DDDEEEEEKKEGKKEKSSLPPKKAPKEREKKAKALGPRGDVGSPDAPRKPLRTKKKEVGEGTKLRKAKKKGPGETDKDPAGSPAALRKEFPAAMFLVGEGGAAEKGVKKKGPPKGSEEE
modifications: biotin on the C-terminal biotinylation tag (E. coli BirA ligase)
B2: Hmg. nucleosomal binding domain 2 (Hmgn2) phage clone, 1M-56K (domain or fragment)
chain: not shown
modifications: biotin on the C-terminal biotinylation tag (E. coli BirA ligase)
B3: IQ motif containing GTPase activating protein 2 (Iqgap2) phage clone, 1232E-1368E (domain or fragment, mouse, UniProt Q3UQ44 1232-1368, looked up)
chain: EKSDLLNELLESLGEVPTVESFLGEGAVDPNDPNKENTLNQLSKTEISLSLTSKYDVKDGEAVDGRSLMIKTKKLIIDVTRNQPGSTLTEILETPATGQQELEHAKDMESRAVVDSRTPEEGKQSQAVIEDARLPLE
modifications: biotin on the C-terminal biotinylation tag (E. coli BirA ligase)
B4: Regulated endocrine-specific protein 18 (Resp18) phage clone, 68V-134K (domain or fragment, mouse, UniProt P47939-1 68-134, looked up)
chain: VPEGMFWADDIAYELMTKKVEHLSRLHPQYPCRKDMKAVSPTANAGVRSKQEEKLQLLSPQKSPTVK-{biotinylation tag(biotin)}
B5: CCCTC-binding factor (Ctcf) phage clone, 136G-400T (domain or fragment, mouse, UniProt Q61164 136-400, looked up)
chain: GAYENEVSKEGLAESEPMICHTLPLPEGFQVVKVGANGEVETLEQGELPPQEDSSWQKDPDYQPPAKKTKKTKKSKLRYTEEGKDVDVSVYDFEEEQQEGLLSEVNAEKVVGNMKPPKPTKIKKKGVKKTFQCELCSYTCPRRSNLDRHMKSHTDERPHKCHLCGRAFRTVTLLRNHLNTHTGTRPHKCPDCDMAFVTSGELVRHRRYKHTHEKPFKCSMCDYASVEVSKLKRHIRSHTGERPFQCSLCSYASRDTYKLKRHMRT
modifications: biotin on the C-terminal biotinylation tag (E. coli BirA ligase)

What was measured:
[1] = molecular target: T1, GST fusion protein of Tulp1-N (1M-298Q); experiment: phage binding assay
[2] = molecular target: T2, GST-free tubby-N (tubby N-terminus, …); experiment: phage binding assay

Row | Binder | binding specificity, clonal phage vs. control phage [1] | binding specificity, clonal phage vs. control phage [2]
1 | B1 | ~32.8 X | ~49 X
2 | B2 | ~37.8 X | ~33.4 X
3 | B3 | – | ~53.2 X
4 | B4 | – | ~10.3 X
5 | B5 | ~7.7 X | ~117 X
